From PMC9733695

Target: human FcRn (neonatal Fc receptor), coupled to a Sepharose affinity column (human) (UniProt P55899)
Experiment: FcRn affinity chromatography

UniProt P55899, sequence (P55899 whole entry, looked up, tested part not stated): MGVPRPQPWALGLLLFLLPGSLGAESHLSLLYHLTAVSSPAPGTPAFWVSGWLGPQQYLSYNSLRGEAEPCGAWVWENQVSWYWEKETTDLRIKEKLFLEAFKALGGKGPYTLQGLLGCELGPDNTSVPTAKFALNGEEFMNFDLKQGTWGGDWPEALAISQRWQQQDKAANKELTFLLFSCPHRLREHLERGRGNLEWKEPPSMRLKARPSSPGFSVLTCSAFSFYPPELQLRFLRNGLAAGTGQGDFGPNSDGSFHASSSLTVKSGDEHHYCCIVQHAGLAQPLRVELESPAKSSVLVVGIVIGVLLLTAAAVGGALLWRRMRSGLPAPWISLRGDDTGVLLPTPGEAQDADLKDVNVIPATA

Substance | retention time on the FcRn affinity column
Antibody 4 TM (human IgG1 Fc with the TM modification) | 15.9 min
Antibody 4 WT (wild-type human IgG1 Fc) | 16.3 min
